Assay results taken from patent publication US20220380456A1 (UNITED KINGDOM RESEARCH AND INNOVATION, published 2022).

T1: His6-TEV-MSP1D1 (CA15914) (human Apo A-I derived, engineered, biotinylated with EZ-link NHS-Biotin for the BLI experiment only)
T1 construct: Membrane scaffold protein; The entry holds the 6xHis tag, the TEV cleavage site and MSP1D1; Tested in Apo-state (lipid free) and in Nanodisc-state (POPC nanodisc, two MSP1D1 per nanodisc)
T1 chain: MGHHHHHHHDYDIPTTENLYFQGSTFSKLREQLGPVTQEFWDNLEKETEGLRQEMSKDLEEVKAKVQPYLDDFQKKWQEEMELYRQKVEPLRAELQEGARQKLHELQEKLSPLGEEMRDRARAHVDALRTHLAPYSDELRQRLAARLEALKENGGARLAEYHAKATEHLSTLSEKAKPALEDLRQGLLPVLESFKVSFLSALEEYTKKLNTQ


What was measured:
[1] = target: T1, His6-TEV-MSP1D1 (CA15914); test: ELISA, purified MegaBody on coated MSP (Apo- or Nanodisc-state) vs non-coated wells, A405
[2] = target: T2, His6-TEV-MSP2N2 (CA15915) (human Apo A-I derived, engineered, UniProt P02647 79-267, limits assumed); test: as above
T2 construct: Membrane scaffold protein; The entry holds the 6xHis tag, the TEV cleavage site and MSP2N2; Tested in Apo-state, in Nanodisc-state, and as the belt of nanodiscs loaded with GABAAR-β3

Binder | fold ELISA signal over no MSP [1] [fold] | fold ELISA signal over no MSP [2] [fold]
MbNbE4^c7HopQ MegaBody (CA15191) (other, MegaBody: c7HopQ scaffold inserted in the first β-turn of Nanobody MP1521_E4; Entry includes 6xHis and EPEA tags) QVQLVESGGGLVQTKTTTSVIDTTNDAQNLLTQAQTIVNTLKDYCPILIAKSSSSNGGTNNANTPSWQTAGGGKNSCATFGAEFSAASDMINNAQKIVQETQQLSANQPKNITQPHNLNLNSPSSLTALAQKMLKNAQSQAEILKLANQVESDFNKLSSGHLKDYIGKCDASAISSANMTMQNQKNNWGNGCAGVEETQSLLKTSAADFNNQTPQINQAQNLANTLIQELGNNTYEQLSRLLTNDNGTNSKTSAQAINQAVNNLNERAKTLAGGTTNSPAYQATLLALRSVLGLWNSMGYAVICGGYTKSPGENNQKDFHYTDENGNGTTINCGGSTNSNGTHSYNGTNTLKADKNVSLSIEQYEKIHEAYQILSKALKQAGLAPLNSKGEKLEAHVTTSKYGSLRLSCAASGRTFGSTFMGWFRQAPGKERDFVASITWNRGLTTYADSVKGRFTISRDSAKNTVDLQMNNLKPEDTAVYYCVLGMGTSFASWGQGTQVTVSSHHHHHHEPEA | ≥ 4 | ≥ 4
MbNbA12^c7HopQ MegaBody (CA15900) (other, MegaBody: c7HopQ scaffold inserted in the first β-turn of Nanobody MP1522_A12; Entry includes 6xHis and EPEA tags) QVQLVESGGGLVQTKTTTSVIDTTNDAQNLLTQAQTIVNTLKDYCPILIAKSSSSNGGTNNANTPSWQTAGGGKNSCATFGAEFSAASDMINNAQKIVQETQQLSANQPKNITQPHNLNLNSPSSLTALAQKMLKNAQSQAEILKLANQVESDFNKLSSGHLKDYIGKCDASAISSANMTMQNQKNNWGNGCAGVEETQSLLKTSAADFNNQTPQINQAQNLANTLIQELGNNTYEQLSRLLTNDNGTNSKTSAQAINQAVNNLNERAKTLAGGTTNSPAYQATLLALRSVLGLWNSMGYAVICGGYTKSPGENNQKDFHYTDENGNGTTINCGGSTNSNGTHSYNGTNTLKADKNVSLSIEQYEKIHEAYQILSKALKQAGLAPLNSKGEKLEAHVTTSKYGSLRLSCAASGRTFSSYNMAWFRQVPGKEREFVASIARTGSGTYYRDSVKGRFTISRDNAKNTVYLQMNSLKPQDTAVYYCTAGGSLATISDYWGQGTQVTVSSHHHHHHEPEA | ≥ 4 | ≥ 4
MbNbB7^c7HopQ MegaBody (CA15901) (other, MegaBody: c7HopQ scaffold inserted in the first β-turn of Nanobody MP1522_B7; Entry includes 6xHis and EPEA tags) QVQLVESGGGLVQTKTTTSVIDTTNDAQNLLTQAQTIVNTLKDYCPILIAKSSSSNGGTNNANTPSWQTAGGGKNSCATFGAEFSAASDMINNAQKIVQETQQLSANQPKNITQPHNLNLNSPSSLTALAQKMLKNAQSQAEILKLANQVESDFNKLSSGHLKDYIGKCDASAISSANMTMQNQKNNWGNGCAGVEETQSLLKTSAADFNNQTPQINQAQNLANTLIQELGNNTYEQLSRLLTNDNGTNSKTSAQAINQAVNNLNERAKTLAGGTTNSPAYQATLLALRSVLGLWNSMGYAVICGGYTKSPGENNQKDFHYTDENGNGTTINCGGSTNSNGTHSYNGTNTLKADKNVSLSIEQYEKIHEAYQILSKALKQAGLAPLNSKGEKLEAHVTTSKYGSLRLSCAASGRSFSSYGMGWFRQAPGKEREFAAGITGTAGITYYTDSVKGRFTISRDNAKNTVYLQMNNLKPEDTAVYYCAAGLTSYAGRGAAGYDYWGQGTQVTVSSHHHHHHEPEA | ≥ 4 | ≥ 4
MbNbC10^c7HopQ MegaBody (CA15905) (other, MegaBody: c7HopQ scaffold inserted in the first β-turn of Nanobody MP1522_C10; Entry includes 6xHis and EPEA tags) QVQLVESGGGLVQTKTTTSVIDTTNDAQNLLTQAQTIVNTLKDYCPILIAKSSSSNGGTNNANTPSWQTAGGGKNSCATFGAEFSAASDMINNAQKIVQETQQLSANQPKNITQPHNLNLNSPSSLTALAQKMLKNAQSQAEILKLANQVESDFNKLSSGHLKDYIGKCDASAISSANMTMQNQKNNWGNGCAGVEETQSLLKTSAADFNNQTPQINQAQNLANTLIQELGNNTYEQLSRLLTNDNGTNSKTSAQAINQAVNNLNERAKTLAGGTTNSPAYQATLLALRSVLGLWNSMGYAVICGGYTKSPGENNQKDFHYTDENGNGTTINCGGSTNSNGTHSYNGTNTLKADKNVSLSIEQYEKIHEAYQILSKALKQAGLAPLNSKGEKLEAHVTTSKYGSLRLSCAASGRTSGSYAIGWFRQAPGKEREFAAAISFTAGVTYYSNSVKGRFTISRDSAKNTAYLQMNTLKPEDTAVYYCATLPSLVLILTAKPNIGYWGQGTQVTVSSHHHHHHEPEA | ≥ 4 | ≥ 4
MbNbH5^c7HopQ MegaBody (CA15904) (other, MegaBody: c7HopQ scaffold inserted in the first β-turn of Nanobody MP1521_H5; Entry includes 6xHis and EPEA tags) QVQLVESGGGLVQTKTTTSVIDTTNDAQNLLTQAQTIVNTLKDYCPILIAKSSSSNGGTNNANTPSWQTAGGGKNSCATFGAEFSAASDMINNAQKIVQETQQLSANQPKNITQPHNLNLNSPSSLTALAQKMLKNAQSQAEILKLANQVESDFNKLSSGHLKDYIGKCDASAISSANMTMQNQKNNWGNGCAGVEETQSLLKTSAADFNNQTPQINQAQNLANTLIQELGNNTYEQLSRLLTNDNGTNSKTSAQAINQAVNNLNERAKTLAGGTTNSPAYQATLLALRSVLGLWNSMGYAVICGGYTKSPGENNQKDFHYTDENGNGTTINCGGSTNSNGTHSYNGTNTLKADKNVSLSIEQYEKIHEAYQILSKALKQAGLAPLNSKGEKLEAHVTTSKYGSLRLSCAASGFTFSTYSMSWVRQAPGKGLEWVSRILTDGGTTSYPDSVKGRFTISRDNAKNTLYLQMNNLKPEDTAVYYCARGWPSDGYSGGYRGQGTQVTVSSHHHHHHEPEA | ≥ 4 | ≥ 4
MbNbG9^c7HopQ MegaBody (CA15899) (other, MegaBody: c7HopQ scaffold inserted in the first β-turn of Nanobody MP1521_G9; Entry includes 6xHis and EPEA tags) QVQLVESGGGSVQTKTTTSVIDTTNDAQNLLTQAQTIVNTLKDYCPILIAKSSSSNGGTNNANTPSWQTAGGGKNSCATFGAEFSAASDMINNAQKIVQETQQLSANQPKNITQPHNLNLNSPSSLTALAQKMLKNAQSQAEILKLANQVESDFNKLSSGHLKDYIGKCDASAISSANMTMQNQKNNWGNGCAGVEETQSLLKTSAADFNNQTPQINQAQNLANTLIQELGNNTYEQLSRLLTNDNGTNSKTSAQAINQAVNNLNERAKTLAGGTTNSPAYQATLLALRSVLGLWNSMGYAVICGGYTKSPGENNQKDFHYTDENGNGTTINCGGSTNSNGTHSYNGTNTLKADKNVSLSIEQYEKIHEAYQILSKALKQAGLAPLNSKGEKLEAHVTTSKYGSLRLSCAASGRTFSTYRMGWFRQAPGKEREFVAGWNSINIYYADSVKGRFTISGDNAKSTVYLQMNSLKPEDTAVYYCAARGLGQTEYNYWGQGTQVTVSSHHHHHHEPEA | ≥ 4 | ≥ 4
MbNbB4^c7HopQ MegaBody (CA15907) (other, MegaBody: c7HopQ scaffold inserted in the first β-turn of Nanobody MP1521_B4; Entry includes 6xHis and EPEA tags) QVQLVESGGGLVQTKTTTSVIDTTNDAQNLLTQAQTIVNTLKDYCPILIAKSSSSNGGTNNANTPSWQTAGGGKNSCATFGAEFSAASDMINNAQKIVQETQQLSANQPKNITQPHNLNLNSPSSLTALAQKMLKNAQSQAEILKLANQVESDFNKLSSGHLKDYIGKCDASAISSANMTMQNQKNNWGNGCAGVEETQSLLKTSAADFNNQTPQINQAQNLANTLIQELGNNTYEQLSRLLTNDNGTNSKTSAQAINQAVNNLNERAKTLAGGTTNSPAYQATLLALRSVLGLWNSMGYAVICGGYTKSPGENNQKDFHYTDENGNGTTINCGGSTNSNGTHSYNGTNTLKADKNVSLSIEQYEKIHEAYQILSKALKQAGLAPLNSKGEKLEAHVTTSKYGSLRLSCAASKSFFNIYDLAWYRQAPGKQRELVASITKVGSTNYADSVKGRFTTSRDNAKKTVYLQMNSLKPEDTAVYYCNLVSPGGVYNYWGQGTQVTVSSHHHHHHEPEA | ≥ 4 | ≥ 4
MbNbA5^c7HopQ MegaBody (CA15906) (other, MegaBody: c7HopQ scaffold inserted in the first β-turn of Nanobody MP1522_A5; Entry includes 6xHis and EPEA tags) QVQLVESGGGLVQTKTTTSVIDTTNDAQNLLTQAQTIVNTLKDYCPILIAKSSSSNGGTNNANTPSWQTAGGGKNSCATFGAEFSAASDMINNAQKIVQETQQLSANQPKNITQPHNLNLNSPSSLTALAQKMLKNAQSQAEILKLANQVESDFNKLSSGHLKDYIGKCDASAISSANMTMQNQKNNWGNGCAGVEETQSLLKTSAADFNNQTPQINQAQNLANTLIQELGNNTYEQLSRLLTNDNGTNSKTSAQAINQAVNNLNERAKTLAGGTTNSPAYQATLLALRSVLGLWNSMGYAVICGGYTKSPGENNQKDFHYTDENGNGTTINCGGSTNSNGTHSYNGTNTLKADKNVSLSIEQYEKIHEAYQILSKALKQAGLAPLNSKGEKLEAHVTTSKYGSLRLSCAASGFAFSNSYMSWVRQAPGKGPEWVSSISPSAWIITHGDSVKGRFTISRDNAKNTLYLQMNHLKPEDAALYYCARRQGYDGYVPSRDYWGQGTQVTVSSHHHHHHEPEA | ≥ 4 | ≥ 4
MDNb1_B9^c7HopQ MegaBody (CA15898) (other, MegaBody: c7HopQ scaffold inserted in the first β-turn of Nanobody MP1521_B9; Entry includes 6xHis and EPEA tags; The name is printed 'MDNb', probably for 'MbNb') QVQLVESGGGLVQTKTTTSVIDTTNDAQNLLTQAQTIVNTLKDYCPILIAKSSSSNGGTNNANTPSWQTAGGGKNSCATFGAEFSAASDMINNAQKIVQETQQLSANQPKNITQPHNLNLNSPSSLTALAQKMLKNAQSQAEILKLANQVESDFNKLSSGHLKDYIGKCDASAISSANMTMQNQKNNWGNGCAGVEETQSLLKTSAADFNNQTPQINQAQNLANTLIQELGNNTYEQLSRLLTNDNGTNSKTSAQAINQAVNNLNERAKTLAGGTTNSPAYQATLLALRSVLGLWNSMGYAVICGGYTKSPGENNQKDFHYTDENGNGTTINCGGSTNSNGTHSYNGTNTLKADKNVSLSIEQYEKIHEAYQILSKALKQAGLAPLNSKGEKLEAHVTTSKYGSLRLSCAASGRTLCSIPMGWFRQAPGKEREFVAAIRWSGGSTYYADSVKGRFSISKDNAKNTVYLQMNNLKPEDTATYYCASAAPYSSWSRGLEYDYWGQGTQVTVSSHHHHHHEPEA | ≥ 4 | ≥ 4
MbNb2_B9^c7HopQ MegaBody (CA15903) (other, MegaBody: c7HopQ scaffold inserted in the first β-turn of Nanobody MP1522_B9; Entry includes 6xHis and EPEA tags) QVQLVESGGGLVQTKTTTSVIDTTNDAQNLLTQAQTIVNTLKDYCPILIAKSSSSNGGTNNANTPSWQTAGGGKNSCATFGAEFSAASDMINNAQKIVQETQQLSANQPKNITQPHNLNLNSPSSLTALAQKMLKNAQSQAEILKLANQVESDFNKLSSGHLKDYIGKCDASAISSANMTMQNQKNNWGNGCAGVEETQSLLKTSAADFNNQTPQINQAQNLANTLIQELGNNTYEQLSRLLTNDNGTNSKTSAQAINQAVNNLNERAKTLAGGTTNSPAYQATLLALRSVLGLWNSMGYAVICGGYTKSPGENNQKDFHYTDENGNGTTINCGGSTNSNGTHSYNGTNTLKADKNVSLSIEQYEKIHEAYQILSKALKQAGLAPLNSKGEKLEAHVTTSKYGSLRLSCVRSARTFGSVAMGWFRQAPGKEREFVTAIDWSGSNTLYADSVKGRFTISRDNAKNTVYLQMNSLKPDDTAVYYCAASRRVVVTTSDFDSWGQGTQVTVSSHHHHHHEPEA | ≥ 4 | ≥ 4
